Measured values as given in US20240141072A1 (published 2024).

What was measured:
[1] = target: DH23 anti-DLL3 trispecific protein; assay: Octet BLI, DLL3-Fc on anti-human Fc tips, single 50 nM
Method: (§1) Using conditioned media containing known concentrations of anti-DLL3 trispecific proteins, the binding affinities of the anti-DLL3 trispecific proteins toward human and cynomolgus monkey DLL3 proteins were measured, using a method where the DLL3 proteins were expressed as human IgG1-Fc fusions and the measurements were carried out using an Octet instrument with anti-human Fc tips.

[2] = target: DH5 anti-DLL3 trispecific protein; assay: as above
Method: as §1

[3] = target: DH18 anti-DLL3 trispecific protein; assay: as above
Chain of DH18 anti-DLL3 trispecific protein (chain, as listed by the source): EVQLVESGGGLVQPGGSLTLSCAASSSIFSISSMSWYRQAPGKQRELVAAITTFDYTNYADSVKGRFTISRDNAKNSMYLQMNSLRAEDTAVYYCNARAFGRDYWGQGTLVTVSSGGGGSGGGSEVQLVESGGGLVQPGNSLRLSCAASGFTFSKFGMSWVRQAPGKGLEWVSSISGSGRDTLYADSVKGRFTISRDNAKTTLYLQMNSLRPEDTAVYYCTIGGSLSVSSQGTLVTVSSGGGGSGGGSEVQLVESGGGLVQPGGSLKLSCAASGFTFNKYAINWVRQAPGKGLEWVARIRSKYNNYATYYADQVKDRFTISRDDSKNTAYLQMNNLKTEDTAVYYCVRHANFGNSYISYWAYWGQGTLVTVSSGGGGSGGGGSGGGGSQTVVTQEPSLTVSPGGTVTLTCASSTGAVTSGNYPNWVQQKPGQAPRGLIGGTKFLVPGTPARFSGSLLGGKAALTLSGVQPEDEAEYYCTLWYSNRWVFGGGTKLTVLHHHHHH
Method: as §1

[4] = target: DH15 anti-DLL3 trispecific protein; assay: as above
Chain of DH15 anti-DLL3 trispecific protein (chain, as listed by the source): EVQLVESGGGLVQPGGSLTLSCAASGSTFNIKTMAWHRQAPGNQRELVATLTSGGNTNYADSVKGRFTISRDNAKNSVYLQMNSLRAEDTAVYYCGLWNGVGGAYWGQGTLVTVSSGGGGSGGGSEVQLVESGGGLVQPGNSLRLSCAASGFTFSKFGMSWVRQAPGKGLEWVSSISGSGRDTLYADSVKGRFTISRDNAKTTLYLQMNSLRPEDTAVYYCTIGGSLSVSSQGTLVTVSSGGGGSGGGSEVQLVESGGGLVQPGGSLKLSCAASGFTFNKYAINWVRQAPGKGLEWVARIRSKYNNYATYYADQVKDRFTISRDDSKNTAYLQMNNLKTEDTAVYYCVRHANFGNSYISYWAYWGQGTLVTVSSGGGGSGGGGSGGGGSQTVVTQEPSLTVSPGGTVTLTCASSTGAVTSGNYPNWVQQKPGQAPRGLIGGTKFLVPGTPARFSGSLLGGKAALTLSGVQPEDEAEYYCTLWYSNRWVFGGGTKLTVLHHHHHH
Method: as §1

[5] = target: DH11 anti-DLL3 trispecific protein; assay: as above
Method: as §1

[6] = target: DH83 anti-DLL3 trispecific protein; assay: as above
Method: as §1

[7] = target: DH89 anti-DLL3 trispecific protein; assay: as above
Method: as §1

[8] = target: DH38 anti-DLL3 trispecific protein; assay: as above
Method: as §1

[9] = target: DH10 anti-DLL3 trispecific protein; assay: as above
Method: as §1

[10] = target: DH45 anti-DLL3 trispecific protein; assay: as above
Method: as §1

[11] = target: DH69 anti-DLL3 trispecific protein; assay: as above
Method: as §1

[12] = target: DH82 anti-DLL3 trispecific protein; assay: as above
Method: as §1

[13] = target: DH3 anti-DLL3 trispecific protein; assay: as above
Chain of DH3 anti-DLL3 trispecific protein (chain, as listed by the source): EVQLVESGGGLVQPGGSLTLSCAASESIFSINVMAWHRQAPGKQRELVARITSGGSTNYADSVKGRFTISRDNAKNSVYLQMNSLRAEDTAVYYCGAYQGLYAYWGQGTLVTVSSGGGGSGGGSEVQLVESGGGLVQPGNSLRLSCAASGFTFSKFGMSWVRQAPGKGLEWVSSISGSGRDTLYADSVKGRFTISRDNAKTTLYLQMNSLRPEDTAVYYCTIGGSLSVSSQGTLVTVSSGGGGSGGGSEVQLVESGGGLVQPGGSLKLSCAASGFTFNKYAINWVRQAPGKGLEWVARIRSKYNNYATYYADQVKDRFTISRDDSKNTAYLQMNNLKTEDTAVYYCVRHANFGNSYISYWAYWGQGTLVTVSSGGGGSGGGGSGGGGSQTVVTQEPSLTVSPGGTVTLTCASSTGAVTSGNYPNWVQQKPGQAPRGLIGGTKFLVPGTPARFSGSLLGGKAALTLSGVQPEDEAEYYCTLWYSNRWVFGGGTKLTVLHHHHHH
Method: as §1

[14] = target: DH67 anti-DLL3 trispecific protein; assay: as above
Method: as §1

[15] = target: DH61 anti-DLL3 trispecific protein; assay: as above
Chain of DH61 anti-DLL3 trispecific protein (chain, as listed by the source): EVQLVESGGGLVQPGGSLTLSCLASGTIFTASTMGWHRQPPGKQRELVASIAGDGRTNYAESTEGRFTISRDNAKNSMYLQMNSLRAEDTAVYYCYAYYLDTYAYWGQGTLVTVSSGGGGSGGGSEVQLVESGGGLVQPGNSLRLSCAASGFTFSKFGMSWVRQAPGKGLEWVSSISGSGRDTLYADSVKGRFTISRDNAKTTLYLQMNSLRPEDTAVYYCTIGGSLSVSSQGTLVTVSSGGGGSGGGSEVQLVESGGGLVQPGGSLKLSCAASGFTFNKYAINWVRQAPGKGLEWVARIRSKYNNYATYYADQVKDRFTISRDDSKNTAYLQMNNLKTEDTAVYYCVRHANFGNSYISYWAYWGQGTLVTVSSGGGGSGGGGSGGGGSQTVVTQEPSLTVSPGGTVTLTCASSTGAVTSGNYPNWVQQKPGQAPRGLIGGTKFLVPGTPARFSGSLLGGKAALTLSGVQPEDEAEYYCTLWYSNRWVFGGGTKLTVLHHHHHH
Method: as §1

[16] = target: DH2 anti-DLL3 trispecific protein; assay: as above
Method: as §1

[17] = target: DH43 anti-DLL3 trispecific protein; assay: as above
Chain of DH43 anti-DLL3 trispecific protein (chain, as listed by the source): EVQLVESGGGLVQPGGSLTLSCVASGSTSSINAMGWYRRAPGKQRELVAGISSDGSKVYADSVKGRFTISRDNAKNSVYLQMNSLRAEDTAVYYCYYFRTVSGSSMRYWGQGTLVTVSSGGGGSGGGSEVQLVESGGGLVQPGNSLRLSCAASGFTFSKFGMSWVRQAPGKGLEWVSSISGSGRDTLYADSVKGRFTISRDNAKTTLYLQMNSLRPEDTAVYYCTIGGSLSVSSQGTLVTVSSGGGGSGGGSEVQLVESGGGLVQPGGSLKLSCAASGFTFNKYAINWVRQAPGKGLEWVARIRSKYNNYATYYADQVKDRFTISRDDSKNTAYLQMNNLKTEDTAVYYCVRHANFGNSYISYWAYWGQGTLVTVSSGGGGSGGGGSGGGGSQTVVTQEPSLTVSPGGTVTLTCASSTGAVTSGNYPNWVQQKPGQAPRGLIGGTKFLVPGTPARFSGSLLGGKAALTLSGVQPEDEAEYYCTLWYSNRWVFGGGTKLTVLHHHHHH
Method: as §1

[18] = target: DH51 anti-DLL3 trispecific protein; assay: as above
Method: as §1

[19] = target: DH54 anti-DLL3 trispecific protein; assay: as above
Method: as §1

[20] = target: DH29 anti-DLL3 trispecific protein; assay: as above
Method: as §1

[21] = target: DH80 anti-DLL3 trispecific protein; assay: as above
Method: as §1

[22] = target: DH22 anti-DLL3 trispecific protein; assay: as above
Method: as §1

[23] = target: DH42 anti-DLL3 trispecific protein; assay: as above
Method: as §1

[24] = target: DH12 anti-DLL3 trispecific protein; assay: as above
Method: as §1

[25] = target: DH84 anti-DLL3 trispecific protein; assay: as above
Method: as §1

[26] = target: DH92 anti-DLL3 trispecific protein; assay: as above
Method: as §1

[27] = target: DH27 anti-DLL3 trispecific protein; assay: as above
Method: as §1

[28] = target: DH58 anti-DLL3 trispecific protein; assay: as above
Chain of DH58 anti-DLL3 trispecific protein (chain, as listed by the source): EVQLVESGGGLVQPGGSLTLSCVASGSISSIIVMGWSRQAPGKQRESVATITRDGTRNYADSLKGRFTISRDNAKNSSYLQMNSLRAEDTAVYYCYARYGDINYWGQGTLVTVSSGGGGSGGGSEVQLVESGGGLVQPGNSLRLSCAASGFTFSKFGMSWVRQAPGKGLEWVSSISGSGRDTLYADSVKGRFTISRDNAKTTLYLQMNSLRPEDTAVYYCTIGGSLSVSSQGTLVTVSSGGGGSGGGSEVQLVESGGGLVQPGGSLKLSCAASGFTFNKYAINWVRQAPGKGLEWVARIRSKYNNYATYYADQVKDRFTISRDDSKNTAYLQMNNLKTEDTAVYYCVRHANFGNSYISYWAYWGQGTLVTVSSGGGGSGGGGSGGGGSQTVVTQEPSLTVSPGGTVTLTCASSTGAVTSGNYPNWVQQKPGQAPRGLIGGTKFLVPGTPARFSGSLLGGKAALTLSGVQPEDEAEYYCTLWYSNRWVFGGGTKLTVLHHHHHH
Method: as §1

[29] = target: DH70 anti-DLL3 trispecific protein; assay: as above
Method: as §1

[30] = target: DH56 anti-DLL3 trispecific protein; assay: as above
Method: as §1

[31] = target: DH1 anti-DLL3 trispecific protein; assay: as above
Method: as §1

[32] = target: DH6 anti-DLL3 trispecific protein; assay: as above
Chain of DH6 anti-DLL3 trispecific protein (chain, as listed by the source): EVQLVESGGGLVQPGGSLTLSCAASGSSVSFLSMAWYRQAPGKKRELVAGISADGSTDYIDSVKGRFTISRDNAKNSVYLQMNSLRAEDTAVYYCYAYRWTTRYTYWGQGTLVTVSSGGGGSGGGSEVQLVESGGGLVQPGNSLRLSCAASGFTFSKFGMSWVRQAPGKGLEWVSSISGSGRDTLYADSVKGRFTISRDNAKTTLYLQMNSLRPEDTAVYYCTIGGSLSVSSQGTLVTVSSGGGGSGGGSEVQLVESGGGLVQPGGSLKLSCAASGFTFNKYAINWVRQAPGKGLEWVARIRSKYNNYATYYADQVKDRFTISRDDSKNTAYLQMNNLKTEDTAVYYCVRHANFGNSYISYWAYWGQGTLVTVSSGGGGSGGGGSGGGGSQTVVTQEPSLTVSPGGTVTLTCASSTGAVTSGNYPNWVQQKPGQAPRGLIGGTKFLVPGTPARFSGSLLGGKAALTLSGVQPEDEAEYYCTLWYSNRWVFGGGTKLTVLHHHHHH
Method: as §1

[33] = target: DH17 anti-DLL3 trispecific protein; assay: as above
Chain of DH17 anti-DLL3 trispecific protein (chain, as listed by the source): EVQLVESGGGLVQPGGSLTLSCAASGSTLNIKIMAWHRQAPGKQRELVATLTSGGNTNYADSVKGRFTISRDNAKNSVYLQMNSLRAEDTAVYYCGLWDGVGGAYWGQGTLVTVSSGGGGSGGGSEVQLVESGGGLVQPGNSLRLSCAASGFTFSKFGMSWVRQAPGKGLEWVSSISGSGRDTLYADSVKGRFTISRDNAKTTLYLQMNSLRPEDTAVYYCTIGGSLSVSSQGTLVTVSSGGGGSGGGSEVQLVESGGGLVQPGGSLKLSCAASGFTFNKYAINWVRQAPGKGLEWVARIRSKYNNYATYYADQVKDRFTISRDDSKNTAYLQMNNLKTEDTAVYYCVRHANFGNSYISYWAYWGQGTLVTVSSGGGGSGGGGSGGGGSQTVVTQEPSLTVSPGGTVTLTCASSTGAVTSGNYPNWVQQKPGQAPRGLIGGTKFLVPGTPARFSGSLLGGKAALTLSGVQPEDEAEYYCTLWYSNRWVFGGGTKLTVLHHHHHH
Method: as §1

[34] = target: DH94 anti-DLL3 trispecific protein; assay: as above
Method: as §1

[35] = target: DH3 anti-DLL3 trispecific protein; assay: Octet BLI, single 50 nM
Method: as §1

[36] = target: T1, 52C4 anti-DLL3 trispecific protein (CHO expressed, purified) (biotinylated); assay: Octet BLI, biotinylated trispecific on streptavidin tips
T1 construct: also called 52C04

[37] = target: DH43 anti-DLL3 trispecific protein; assay: Octet BLI, single 60 nM
[38] = target: DH6 anti-DLL3 trispecific protein; assay: Octet BLI, single 60 nM
[39] = target: T2, 51G2 anti-DLL3 trispecific protein (CHO expressed, purified) (biotinylated); assay: Octet BLI, biotinylated trispecific on streptavidin tips
T2 construct: also called 51G02

[40] = target: 51G10 anti-DLL3 trispecific protein (CHO expressed, purified) (biotinylated); assay: as above
[41] = target: DH43 anti-DLL3 trispecific protein; assay: Octet BLI, single 50 nM, four samples of conditioned medium
Method: (§2) Using the conditioned medium with known concentrations of the anti-DLL3 trispecific proteins, the binding affinities of the anti-DLL3 trispecific proteins toward human DLL3 protein were measured using a method where biotinylated version of human DLL3 protein were expressed as a human IgG1 fusion protein, and the binding affinity measurement was carried out in an Octet instrument with streptavidin tips.

[42] = target: DH6 anti-DLL3 trispecific protein; assay: as above
Method: as §2

[43] = target: DH43 anti-DLL3 trispecific protein; assay: Octet BLI, 60/20/6.67/2.22 nM
Method: as §2

[44] = target: DH6 anti-DLL3 trispecific protein; assay: Octet BLI, 60/20/6.67/2.22 nM
Method: as §2

[45] = target: 53A05 anti-DLL3 trispecific protein; assay: Octet BLI, streptavidin tips, single 50 nM
Method: as §2, with “proteins, the relative binding affinities” for “proteins, the binding affinities”

[46] = target: 41D07 anti-DLL3 trispecific protein; assay: Octet BLI, streptavidin tips, single 50 nM
Method: as §2, with “proteins, the relative binding affinities” for “proteins, the binding affinities”

Chain of DH23 anti-DLL3 trispecific protein (chain, as listed by the source): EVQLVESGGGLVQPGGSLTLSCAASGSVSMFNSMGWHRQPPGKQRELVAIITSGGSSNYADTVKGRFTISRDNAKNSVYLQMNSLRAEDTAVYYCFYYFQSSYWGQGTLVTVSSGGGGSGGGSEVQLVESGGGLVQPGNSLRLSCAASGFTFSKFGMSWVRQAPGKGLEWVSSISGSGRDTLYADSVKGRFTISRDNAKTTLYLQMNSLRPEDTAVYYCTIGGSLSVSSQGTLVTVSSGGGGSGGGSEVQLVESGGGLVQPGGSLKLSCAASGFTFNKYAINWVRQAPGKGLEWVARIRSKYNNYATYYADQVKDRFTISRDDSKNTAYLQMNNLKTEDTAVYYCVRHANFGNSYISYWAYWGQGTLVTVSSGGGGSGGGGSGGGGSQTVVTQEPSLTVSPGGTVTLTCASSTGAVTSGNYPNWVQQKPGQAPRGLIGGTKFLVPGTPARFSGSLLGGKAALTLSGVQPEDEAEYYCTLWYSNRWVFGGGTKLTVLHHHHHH

B1: human DLL3 protein expressed as human IgG1-Fc fusion (Fc fusion)
chain: AGVFELQIHSFGPGPGPGAPRSPCSARLPCRLFFRVCLKPGLSEEAAESPCALGAALSARGPVYTEQPGAPAPDLPLPDGLLQVPFRDAWPGTFSFIIETWREELGDQIGGPAWSLLARVAGRRRLAAGGPWARDIQRAGAWELRFSYRARCEPPAVGTACTRLCRPRSAPSRCGPGLRPCAPLEDECEAPLVCRAGCSPEHGFCEQPGECRCLEGWTGPLCTVPVSTSSCLSPRGPSSATTGCLVPGPGPCDGNPCANGGSCSETPRSFECTCPRGFYGLRCEVSGVTCADGPCFNGGLCVGGADPDSAYICHCPPGFQGSNCEKRVDRCSLQPCRNGGLCLDLGHALRCRCRAGFAGPRCEHDLDDCAGRACANGGTCVEGGGAHRCSCALGFGGRDCRERADPCAARPCAHGGRCYAHFSGLVCACAPGYMGARCEFPVHPDGASALPAAPPGLRPGDPQRYL
notes: also called huDLL3; not shown: human IgG1 Fc
**Q.** With B1 as the binder, how does the Kd [1] read?
**A.** 9.9 nM

**Q.** And the Kd [2]?
**A.** 0.5 nM

**Q.** And the Kd [3]?
**A.** 1 nM

**Q.** And the Kd [4]?
**A.** 17.4 nM

**Q.** What about the Kd [5] of the same binder?
**A.** 5.3 nM

**Q.** And the Kd [6]?
**A.** 4.7 nM

**Q.** And the Kd [7]?
**A.** 6.9 nM

**Q.** And the Kd [8]?
**A.** 11.9 nM

**Q.** What about the Kd [9] of the same binder?
**A.** 3.9 nM

**Q.** And the Kd [10]?
**A.** 1.9 nM

**Q.** And the Kd [11]?
**A.** 1.2 nM

**Q.** What about the Kd [12] of the same binder?
**A.** 6.6 nM

**Q.** What about the Kd [13] of the same binder?
**A.** 41.9 nM

**Q.** And the Kd [14]?
**A.** 8.4 nM

**Q.** What about the Kd [15] of the same binder?
**A.** 10.6 nM

**Q.** What about the Kd [16] of the same binder?
**A.** 6.5 nM

**Q.** And the Kd [17]?
**A.** 4.3 nM

**Q.** And the Kd [18]?
**A.** 5.1 nM

**Q.** What about the Kd [19] of the same binder?
**A.** 20.6 nM

**Q.** And the Kd [20]?
**A.** 5.6 nM

**Q.** And the Kd [21]?
**A.** 0.8 nM

**Q.** And the Kd [22]?
**A.** 6.8 nM

**Q.** And the Kd [23]?
**A.** 4.3 nM

**Q.** What about the Kd [24] of the same binder?
**A.** 1.3 nM

**Q.** And the Kd [25]?
**A.** 15.2 nM

**Q.** And the Kd [26]?
**A.** 18 nM

**Q.** What about the Kd [27] of the same binder?
**A.** 2.1 nM

**Q.** What about the Kd [28] of the same binder?
**A.** 3.3 nM

**Q.** And the Kd [29]?
**A.** 16.2 nM

**Q.** What about the Kd [30] of the same binder?
**A.** 8.1 nM

**Q.** And the Kd [31]?
**A.** 3.5 nM

**Q.** And the Kd [32]?
**A.** 6.1 nM

**Q.** What about the Kd [33] of the same binder?
**A.** 7 nM

**Q.** And the Kd [34]?
**A.** 2.6 nM

**Q.** And the Kd [35]?
**A.** 42 nM

B2: human DLL3 (Example 6) (ligand)
chain: B1 chain
notes: also called huDLL3
**Q.** For B2, which Kd [36] is on record?
**A.** 2.2 nM

B3: cynomolgus monkey DLL3 protein expressed as human IgG1-Fc fusion (Fc fusion, Macaca fascicularis)
chain: AGVFELQIHSFGPGPGGAPRSPYSARGPCRLFFRVCLKPGLSEEAAESPCALGAALSARGPVYTEQPEAPAPDLPLPNGLLQVPFRDAWPGTFSLIIETWREELGDQIGGPAWSLLARVTRRRRLAAGGPWAGDIQRAGAWELRFSYRARCELPAVGTACTRLCRPRSASRCGPGLRPCAPLEDECEAPPVCRAGCSLEHGFCEQPGECRCLEGWTGPLCMVPVSTSSCLGLRGPSSTTTGCLVPGPGPCDGNPCANGGSCSETPGSFECTCPRGFYGLRCEVSGVTCADGPCFNGGLCVGGADPDSAYICHCPPGFQGSNCEKRVDRCSLQPCRNGGLCLDLGHALRCRCRAGFAGPRCEHDLNDCAGRACANGGTCVEGGGAHRCSCALGFGGRDCRERADPCAARPCAHGGRCYAHFSGLVCACAPGYMGARCEFPVHPDGVSALPAAPPGLRPGDPQRYP
notes: also called cyDLL3; not shown: human IgG1 Fc
**Q.** Does B3 bind [1]?
**A.** no binding (tested: 50 nM)

**Q.** What about the Kd [2] of the same binder?
**A.** 5.5 nM

**Q.** And the Kd [3]?
**A.** 5.9 nM

**Q.** Does B3 bind [4]?
**A.** no binding (tested: 50 nM)

**Q.** What about the Kd [5] of the same binder?
**A.** 5.6 nM

**Q.** Does B3 bind [6]?
**A.** no binding (tested: 50 nM)

**Q.** Does B3 bind [7]?
**A.** no binding (tested: 50 nM)

**Q.** Does B3 bind [8]?
**A.** no binding (tested: 50 nM)

**Q.** What about the Kd [9] of the same binder?
**A.** 25 nM

**Q.** And the Kd [10]?
**A.** 2.8 nM

**Q.** And the Kd [11]?
**A.** 7 nM

**Q.** Does B3 bind [12]?
**A.** no binding (tested: 50 nM)

**Q.** Does B3 bind [13]?
**A.** no binding (tested: 50 nM)

**Q.** And the Kd [14]?
**A.** 8.2 nM

**Q.** What about the Kd [15] of the same binder?
**A.** 30.8 nM

**Q.** And the Kd [16]?
**A.** 14.6 nM

**Q.** And the Kd [17]?
**A.** 5.5 nM

**Q.** What about the Kd [18] of the same binder?
**A.** 18.2 nM

**Q.** And the Kd [19]?
**A.** 42.4 nM

**Q.** Does B3 bind [20]?
**A.** no binding (tested: 50 nM)

**Q.** And the Kd [21]?
**A.** 5.5 nM

**Q.** What about the Kd [22] of the same binder?
**A.** 16.4 nM

**Q.** And the Kd [23]?
**A.** 11.7 nM

**Q.** Does B3 bind [24]?
**A.** no binding (tested: 50 nM)

**Q.** What about the Kd [25] of the same binder?
**A.** 17.9 nM

**Q.** What about the Kd [26] of the same binder?
**A.** 17.5 nM

**Q.** And the Kd [27]?
**A.** 11.3 nM

**Q.** What about the Kd [28] of the same binder?
**A.** 27.9 nM

**Q.** What about the Kd [29] of the same binder?
**A.** 86.2 nM

**Q.** And the Kd [30]?
**A.** 8 nM

**Q.** What about the Kd [31] of the same binder?
**A.** 10.7 nM

**Q.** And the Kd [32]?
**A.** 6.8 nM

**Q.** Does B3 bind [33]?
**A.** no binding (tested: 50 nM)

**Q.** And the Kd [34]?
**A.** 9.6 nM

B4: cynomolgus DLL3 (ligand)
chain: B3 chain
notes: also called cyDLL3
**Q.** For B4, which Kd [37] is on record?
**A.** 8.5 nM

**Q.** What about the Kd [38] of the same binder?
**A.** 10 nM

**Q.** And the Kd [39]?
**A.** 1.4 to 3.4 nM

**Q.** What about the Kd [40] of the same binder?
**A.** 1.4 to 3.4 nM

B5: biotinylated human DLL3 protein expressed as a human IgG1 fusion protein (Fc fusion, not shown: a dimerising Fc or GST)
chain: B1 chain
modifications: biotinylated
**Q.** With B5 as the binder, how does the Kd [41] read?
**A.** 7.7 nM

**Q.** What about the Kd [42] of the same binder?
**A.** 9.9 nM

**Q.** What about the Kd [43] of the same binder?
**A.** 8.9 nM

**Q.** What about the Kd [44] of the same binder?
**A.** 9 nM

**Q.** What about the Kd [45] of the same binder?
**A.** 0.3 nM

**Q.** And the Kd [46]?
**A.** 34 nM
